Values of other authors as cited in PMC4443854.

Target: actin filaments (F-actin) (Oryctolagus cuniculus) (UniProt P68135)

Substance: AIP1 (from UniProt O75083)
- Kd: 2.5 µM
